For twelve molecules, binding result and Kd results are on record in US20230107890A1 (HOBER BIOTECH, published 2023).

B1: MG-DEAVDANS-ADAPT6-GSSC (designed binder)
chain: MGDEAVDANSLAAAKETALYHLDRLGVADAYKDLIDKAKTVEGVKARYFEILHALPGSSC
notes: also called non-fused ADAPT6; unfused control
B2: MG-DEAVDANS-ABD35-(SSSG)5-ADAPT6-GSSC (designed binder)
chain: MGDEAVDANSLAEAKVLANRELDKYGVSDFYKRLINKAKTVEGVEALKLHILAALPSSSGSSSGSSSGSSSGSSSGLAAAKETALYHLDRLGVADAYKDLIDKAKTVEGVKARYFEILHALPGSSC
notes: also called ABD035-(SSSG)5-ADAPT6
B3: MG-DEAVDANS-ADAPT6-(SSSG)5-ABD35-GSSC (designed binder)
chain: MGDEAVDANSLAAAKETALYHLDRLGVADAYKDLIDKAKTVEGVKARYFEILHALPSSSGSSSGSSSGSSSGSSSGLAEAKVLANRELDKYGVSDFYKRLINKAKTVEGVEALKLHILAALPGSSC
notes: also called ADAPT6-(SSSG)5-ABD035
B4: MG-DEAVDANS-ADAPT6-(SSSG)3-ABD035-GSSC (designed binder)
chain: MGDEAVDANSLAAAKETALYHLDRLGVADAYKDLIDKAKTVEGVKARYFEILHALPSSSGSSSGSSSGLAEAKVLANRELDKYGVSDFYKRLINKAKTVEGVEALKLHILAALPGSSC
B5: MG-DEAVDANS-ABD035-(SSSG)3-ADAPT6-GSSC (designed binder)
chain: MGDEAVDANSLAEAKVLANRELDKYGVSDFYKRLINKAKTVEGVEALKLHILAALPSSSGSSSGSSSGLAAAKETALYHLDRLGVADAYKDLIDKAKTVEGVKARYFEILHALPGSSC
notes: also called ABD035-ADAPT6
B6: MG-DEAVDANS-ADAPT6-GSSC-HPEM-125I (designed binder)
chain: B1 chain
modifications: C-terminal cysteine coupled to 125I-labelled ((4-hydroxyphenyl)ethyl)maleimide (HPEM)
notes: Radioiodinated form of the non-fused control
B7: MG-DEAVDANS-ADAPT6-GSSC-DOTA-177Lu (designed binder)
chain: MGDEAVDANSLAAAKETALYHLDRLGVADAYKDLIDKAKTVEGVKARYFEILHALPGSSC([maleimide-DOTA])
modifications: also: 177Lu chelated by DOTA
B8: MG-DEAVDANS-ADAPT6-(SSSG)3-ABD035-GSSC-DOTA-177Lu (designed binder)
chain: B4 chain
modifications: C-terminal cysteine coupled to maleimide-DOTA chelating 177Lu
notes: also called Inventive 1
B9: MG-DEAVDANS-ADAPT6-(SSSG)3-ABD035-GSSC-HPEM-125I (designed binder)
chain: B4 chain
modifications: C-terminal cysteine coupled to 125I-labelled ((4-hydroxyphenyl)ethyl)maleimide (HPEM)
notes: also called Inventive 2
B10: MG-DEAVDANS-ABD035-(SSSG)3-ADAPT6-GSSC-HPEM-125I (designed binder)
chain: B5 chain
modifications: C-terminal cysteine coupled to 125I-labelled ((4-hydroxyphenyl)ethyl)maleimide (HPEM)
B11: MG-DEAVDANS-ABD035-(SSSG)3-ADAPT6-GSSC-DOTA-177Lu (designed binder)
chain: B5 chain
modifications: C-terminal cysteine coupled to maleimide-DOTA chelating 177Lu
B12: MGDEAVDANS-ADAPTNeg-(SSSG)3-ABD035-GSSC (designed binder)
chain: MGDEAVDANSLAEAKVLANRELDKYGVADAYKNLINNAKTVEGVKARIDEILAALPSSSGSSSGSSSGLAEAKVLANRELDKYGVSDFYKRLINKAKTVEGVEALKLHILAALPGSSC

Groups on a side chain read outwards from the residue. No end group written: not given here. *: point of attachment. DOTA = O=C(O)CN1CCN(CC(=O)O)CCN(CC(=O)*)CCN(CC(=O)O)CC1

The target in one assay is T1, Human Serum Albumin (HSA) (human, UniProt P02768 25-609). As to the kind of experiment: SPR, HSA immobilised on CM5 chip, analyte injected at 3.125-50 nM. As for the experimental part: (§1) In the graphs of FIG. 4, the X axis represents time [s] and the Y axis represents Response Unit [RU].
T1 sequence (P02768 25-609 limits assumed): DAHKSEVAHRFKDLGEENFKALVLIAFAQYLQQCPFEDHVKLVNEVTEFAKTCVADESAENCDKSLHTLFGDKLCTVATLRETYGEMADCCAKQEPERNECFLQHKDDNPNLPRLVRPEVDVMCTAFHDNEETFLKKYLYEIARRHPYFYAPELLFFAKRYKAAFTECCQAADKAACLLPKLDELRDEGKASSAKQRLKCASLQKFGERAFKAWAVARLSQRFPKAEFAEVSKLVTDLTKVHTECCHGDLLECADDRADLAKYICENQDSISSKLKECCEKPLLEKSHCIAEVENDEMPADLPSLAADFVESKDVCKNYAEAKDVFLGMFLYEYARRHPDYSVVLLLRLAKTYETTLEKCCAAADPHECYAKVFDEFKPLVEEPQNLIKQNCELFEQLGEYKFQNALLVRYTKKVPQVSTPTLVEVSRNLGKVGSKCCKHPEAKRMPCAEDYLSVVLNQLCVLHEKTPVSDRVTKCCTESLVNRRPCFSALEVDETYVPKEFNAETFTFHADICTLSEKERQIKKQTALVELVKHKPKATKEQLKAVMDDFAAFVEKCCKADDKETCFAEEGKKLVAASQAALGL
(§2) Target binding analysis was performed on a Biacore T200 system (GE Healthcare, Stockholm, Sweden) by injecting analytes over a CM5 chip immobilized with Murine Serum Albumin (MSA), Human Serum Albumin (HSA) and Human Epidermal growth factor receptor 2 (HER2) to a response level of […] each. Experimental parameters have been described previously (Garousi 2019).
For the molecule B1, the binding result is “no binding (tested: 50 nM)”.

In the next assay the target is T2, Human Epidermal growth factor receptor 2 (HER2), immobilised on a CM5 chip (human, UniProt P04626 23-652, limits assumed). As to the kind of experiment: SPR, HER2 immobilised on CM5 chip, analyte 3.125-50 nM with 10x excess HSA. As for the experimental part:
as §1, §2
Take B1: the binding result is listed as “binds”.

The target in another assay is T2, Human Epidermal growth factor receptor …. Briefly: SPR (Biacore T200), HER2 immobilised on CM5 chip. As for the experimental part: as §2
Consider B2, for which the Kd was 4.32 nM.

Turning to B3, the Kd amounted to 4.45 nM.

B4 yielded a Kd of 4.67 nM.

Take B5: binding was characterised by a dissociation constant (Kd) of 5.2 nM.

In a further assay the target is T3, HER2 on living HER2-expressing cells (SKOV-3, BT-474) (human, UniProt P04626 23-1255).
T3 construct: whole, on cells; also called HER2 receptors in cells; HER2 on living cells
As to the kind of experiment: LigandTracer, living SKOV-3 cells; KD1 (stronger of two interactions). The protocol:
(§3) Cell-lines were purchased from American Type Culture Collection (ATCC, Manassas, Va.). […] The affinity of radiolabeled conjugates binding to living HER2-expressing SKOV-3 cells was determined using LigandTracer (Ridgeview Instruments AB) by an established method as described previously (Tolmachev 2014).
B6 had a Kd of 0.41 nM.

Regarding B7, the Kd came to 0.337 nM.

For the molecule B8, the Kd was 0.485 nM.

For the molecule B9, binding was put at a Kd of 0.6 nM.

Turning to B10, the Kd is 0.15 nM.

As to B11, binding was characterised by a dissociation constant (Kd) of 0.432 nM.

The target of a further assay is T1, Human Serum Albumin (HSA). As to the kind of experiment: SPR (Biacore T200), HSA immobilised on CM5 chip. As for the experimental part:
as §2
B2 yielded a Kd of 0.052 nM.

Regarding B3, binding was characterised by a dissociation constant (Kd) of 0.0538 nM.

On to B4, for which binding was put at a Kd of 0.0498 nM.

Consider B5, for which the Kd is 0.0521 nM.

A further assay addresses T3, HER2 on living HER2-expressing cells …. Briefly: LigandTracer, living SKOV-3 cells; KD2 (weaker of two interactions). The protocol: as §3
With B6, the Kd is 27 nM.

B7 showed an equilibrium dissociation constant (Kd) of 41 nM.

The molecule B8 returned a Kd of 33 nM.

In turn, B9 registered a Kd of 36 nM.

Consider B10, for which the affinity, expressed as Kd, was 28 nM.

B11 returned a Kd of 38 nM.

Another assay deals with T2, Human Epidermal growth factor receptor …. Briefly: SPR, successive injections without regeneration, on HER2; concentrations not given.
With B12, the binding result is “no binding”.

A further assay has as its target T4, Murine Serum Albumin (MSA) (murine, UniProt P07724 25-608). As to the kind of experiment: SPR, MSA immobilised on CM5 chip, analyte injected at 3.125-50 nM. As for the experimental part: as §1, §2
B1: the binding result is “no binding (tested: 50 nM)”.

In a further assay the target is T4, Murine Serum Albumin (MSA). As to the kind of experiment: SPR (Biacore T200), MSA immobilised on CM5 chip. As for the experimental part:
as §2
Consider B3, for which the Kd was 1.8 nM.

As to B4, binding was characterised by a dissociation constant (Kd) of 1.76 nM.

For the molecule B5, binding was put at a Kd of 1.83 nM.
